Measured values from patent publication US20250049953A1, “TREATMENT AND METHOD FOR INHIBITING LATE NA CURRENT” (THE TRUSTEES OF COLUMBIA UNIVERSITY IN THE CITY OF NEW YORK, priority 2022, published 2025).

Key:
Assay type in all cases: cell-based
[1] = molecular target: T1, NaV1.5 IQ/AA mutant (Homo sapiens, UniProt Q14524, I1908A/Q1909A); test: Multichannel recordings of late Na current, NaV1.5 IQ/AA mutant in HEK293 cells
T1 construct: expressed in transfected cells; host or cells: HEK293 (ATCC CRL1573)
Description: (§1) The human NaV1.5 channel corresponds to clone M77235.1 (GenBank) and is subcloned into pGW 1 vector with HindIII and SaII. To facilitate construction of channelopathic mutations in the channel carboxy-terminus, we introduced silent mutations into NaV1.5 to introduce an NruI cutting site near the channel carboxy-terminus (5329-gtggccacg-5337 into 5329-gtCgcGacg-5337). Subsequently, we used overlap-extension PCR and ligated the PCR product into NaV1.5/pGW1 using NruI and XbaI restriction sites (mutations: E1784K, S1904L, IQ/AA, and Q1909R). For generating the ΔKPQ and IFM/IQM mutations, we used overlap-extension PCR and ligated in NaV1.5/pGW1 following restriction digest using KpnI and XbaI site. For generation of NaV1.5 truncations, we PCR amplified relevant segments using a forward primer upstream of the KpnI site and a reverse primer that truncated at the appropriate location (Δ1810 and Δ1885) and included an XbaI site and ligated into NaV1.5/pW1 vector. For LILA/WICW mutations, we used overlap extension and used restriction site AgeI and NheI for subsequent ligation. All segments subjected to PCR amplification were verified by sequencing. For generating human FHF2 splice-variants, we synthesized gene fragments and ligated into pcDNA3 using BamHI/EcoRI restriction sites. Human FHF1A and FHF1B were subcloned into ECFP-N3 vector, FHF2 splice variants and FHF3 were subcloned into pcDNA3. Truncations of the FHF1A amino-terminus (NT) were generated as fusion proteins with Venus fluorescent protein in the carboxy-terminus by encoding the relevant segments as noted in FIG. 12A in the forward PCR primer and the fluorophore as the template. Following PCR amplification, each fragment was ligated into pcDNA3 following restriction digest using NheI and XhoI enzymes. Plasmid encoding PKA catalytic subunit was constructed from pDONR222-PRKACA as described previously.
HEK293 cells (ATCC CRL1573) were cultured on glass coverslips in 60-mm dishes and transfected using the Ca^2+-phosphate method as previously described. For electrophysiology experiments, we co-transfected 4-8 μg of cDNA encoding the desired channel variant with 4 μg of YFP, and 1 μg of simian virus 40 T-antigen. For experiments evaluating effect of FHF, we transfected the relevant FHF variant at 1:1 ratio as the α-subunit. For experiments considering competition between FHF1/2 isoforms, we co-transfected FHF1B and FHF2S variants at specified ratios (ranging from 1:1 to 1:10). The culture media was replaced following 4 h of transfection. Electrophysiology recordings were then performed at room temperature 1-2 days following transfection.
Multichannel records were obtained in the on-cell configuration with either HEK293 cells or in aMVM as in our previous study. The pipette contained (in mM): 140 NaCl; 10 HEPES; 0.5 CaCl2; at 300 mOsm, adjusted with tetraethylammonium methanesulfonate; and pH 7.4 adjusted with tetraethylammonium hydroxide. To zero membrane potential, the bath contained (in mM): 132 K^+-glutamate; 5 KCl; 5 NaCl; 3 MgCl; 2 EGTA; 10 glucose; 20HEPES; at 300 mOsm adjusted with glucose; and pH 7.4 adjusted with NaOH. Data were acquired at room temperature using the integrating mode of an Axopatch 200A amplifier (Axon Instruments, Molecular Devices). Patch pipettes (3-10 MΩ) were pulled from ultra-thick-walled borosilicate glass (BF200-116-10; Sutter Instruments) using horizontal puller (P-97, Sutter Instruments), fire polished with a microforge (Narishige), and coated with Sylgard™ brand silicone elastomer (Dow Corning). Elementary currents were low-pass filtered at 2 kHz with a four-pole Bessel filter and digitized at 200 kHz with an ITC-18 unit (Instrutech), controlled by custom MATLAB software (Mathworks). For each pulse, we obtained P/8 leak pulses. Leak subtraction was performed using an automated algorithm which fit the kinetics of the leak current or the capacitive transient with convex optimization with L1 regularization. […]

[2] = molecular target: T2, NaV1.5 S[1885]* (Homo sapiens, UniProt Q14524); test: Multichannel recordings of late Na current, NaV1.5 S[1885]* truncation; conditions: co-expression
T2 construct: expressed in transfected cells; host or cells: HEK293 (ATCC CRL1573)
Description: as §1, with “Truncations of the FHF1A amino-terminus (NT) were generated as fusion proteins with Venus fluorescent protein in the carboxy-terminus by encoding the relevant segments as noted in FIG. 12A in the forward PCR primer and the fluorophore as the template. Following PCR amplification, each fragment was ligated into pcDNA3 following restriction digest using NheI and XhoI enzymes. Plasmid encoding PKA catalytic subunit was constructed from pDONR222-PRKACA as described previously.” left out

[3] = molecular target: T3, wild-type NaV1.5 (Homo sapiens, UniProt Q14524); test: Phosphorylation-dependent late Na current, wild-type NaV1.5 co-expressed with PKAcat or CaMKIIT286D in HEK293 cells
T3 construct: expressed in transfected cells; host or cells: HEK293 (ATCC CRL1573)
Description: As such, we sought to determine whether “protective” FHF variants may inhibit phosphorylation-dependent INa,L. To maximally upregulate INa,L, we co-expressed wild-type NaV1.5 with either (1) the catalytic Cα subunit of protein kinase A (PKA) or (2) a constitutively-active Ca^2+/CaM dependent kinase II (CaMKIIT286D) mutant in HEK293 cells. This maneuver likely triggers runaway phosphorylation of NaV1.5 and thereby furnishes a baseline to discern any potential FHF-dependent change. As expected, we observed an ˜5 fold increase in INa,L in the presence of the PKA Cα subunit (FIGS. 3D and 3E), and a 3-fold increase with CaMKIIT286D (FIGS. 3E and 11B). […] Encouraged by these findings, we dissected the functional role of this modulation in native cardiomyocytes (FIGS. 3F and 3G).
The human NaV1.5 channel corresponds to clone M77235.1 (GenBank) and is subcloned into pGW 1 vector with HindIII and SaII. To facilitate construction of channelopathic mutations in the channel carboxy-terminus, we introduced silent mutations into NaV1.5 to introduce an NruI cutting site near the channel carboxy-terminus (5329-gtggccacg-5337 into 5329-gtCgcGacg-5337). Subsequently, we used overlap-extension PCR and ligated the PCR product into NaV1.5/pGW1 using NruI and XbaI restriction sites (mutations: E1784K, S1904L, IQ/AA, and Q1909R). […]

With “FixR: minimal 39-amino-acid FHF1A amino-terminal effector domain, MAAAIASSLIRQKRQARESNSDRVSASKRRSSPSKDGRS (SEQ ID NO: 4), expressed as peptide” the “reduction in INa,L” value ([1]; FixR co-expressed, FIG. 5C) was 10- to 15 fold, the “change in INa,L” value ([1]; co-expression with NaV1.5 IQ/AA in HEK293 cells) was “strong inhibition” and the “change in INa,L” value [2] was “strongly inhibits”. The “change in phosphorylation-dependent INa,L” value ([3]; INa,L upregulated by CaMKIIT286D) was “reduces INa,L” and the “change in phosphorylation-dependent INa,L” value ([3]; INa,L upregulated by PKA catalytic subunit (PKAcat)) was “reduces INa,L”.
